Data reported in publication PMC3217859, “Protein phosphatase 2a (PP2A) binds within the oligomerization domain of striatin and regulates the phosphorylation and activation of the mammalian Ste20-Like kinase Mst3” (BMC Biochemistry, 2011).

Assays:
Test in all cases: co-IP; anti-HA immunoprecipitates (12CA5 with protein A-Sepharose, or F7 anti-HA-agarose when probing for Mst3 or Mst4; 1.5 h, 4°C) of lysates (1% Nonidet P-40, 0.135 M NaCl, 10% glycerol, 20 mM Tris pH 8.0) of HEK293 cells transfected with HA-striatins; endogenous partners by immunoblot, partner/HA-striatin ratio by chemilumimager against wild type; 50 mM NaF and 100 nM okadaic acid in the lysis buffer in the …
Settings in all cases: partners not purified
[1] = biological target: T1, HA-tagged R100S/R101E striatin (human, UniProt O43815 1-780, R100S | R101E)
T1 construct: striatin, human, double point mutant in the coiled-coil domain; source: HEK293, transfected, in lysate; not shown: HA, N-terminal, kept
T1 sequence (looked up): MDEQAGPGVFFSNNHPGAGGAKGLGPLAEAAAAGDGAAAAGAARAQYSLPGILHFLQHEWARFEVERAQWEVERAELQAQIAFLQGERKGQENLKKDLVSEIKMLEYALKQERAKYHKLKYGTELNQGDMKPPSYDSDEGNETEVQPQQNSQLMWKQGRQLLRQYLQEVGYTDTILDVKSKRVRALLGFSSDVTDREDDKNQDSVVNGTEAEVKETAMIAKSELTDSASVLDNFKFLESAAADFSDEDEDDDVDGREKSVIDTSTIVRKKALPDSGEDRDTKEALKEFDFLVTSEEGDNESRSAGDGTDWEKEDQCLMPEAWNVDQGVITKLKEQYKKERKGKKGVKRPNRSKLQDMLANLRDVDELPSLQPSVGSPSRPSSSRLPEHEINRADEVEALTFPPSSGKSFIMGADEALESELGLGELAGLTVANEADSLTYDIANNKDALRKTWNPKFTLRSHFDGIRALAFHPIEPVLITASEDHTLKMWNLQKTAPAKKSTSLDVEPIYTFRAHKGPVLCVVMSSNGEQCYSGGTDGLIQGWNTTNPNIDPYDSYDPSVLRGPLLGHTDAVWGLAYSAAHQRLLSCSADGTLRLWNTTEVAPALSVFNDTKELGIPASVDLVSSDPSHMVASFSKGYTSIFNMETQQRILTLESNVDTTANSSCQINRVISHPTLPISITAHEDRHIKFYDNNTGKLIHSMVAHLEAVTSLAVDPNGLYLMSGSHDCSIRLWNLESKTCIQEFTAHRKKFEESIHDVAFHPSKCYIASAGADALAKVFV

[2] = biological target: T2, HA-tagged Δ(227-309) striatin (human, UniProt O43815 1-780, Δ(227-309))
T2 construct: source: HEK293, transfected, in lysate; not shown: HA, N-terminal, kept
T2 sequence (looked up): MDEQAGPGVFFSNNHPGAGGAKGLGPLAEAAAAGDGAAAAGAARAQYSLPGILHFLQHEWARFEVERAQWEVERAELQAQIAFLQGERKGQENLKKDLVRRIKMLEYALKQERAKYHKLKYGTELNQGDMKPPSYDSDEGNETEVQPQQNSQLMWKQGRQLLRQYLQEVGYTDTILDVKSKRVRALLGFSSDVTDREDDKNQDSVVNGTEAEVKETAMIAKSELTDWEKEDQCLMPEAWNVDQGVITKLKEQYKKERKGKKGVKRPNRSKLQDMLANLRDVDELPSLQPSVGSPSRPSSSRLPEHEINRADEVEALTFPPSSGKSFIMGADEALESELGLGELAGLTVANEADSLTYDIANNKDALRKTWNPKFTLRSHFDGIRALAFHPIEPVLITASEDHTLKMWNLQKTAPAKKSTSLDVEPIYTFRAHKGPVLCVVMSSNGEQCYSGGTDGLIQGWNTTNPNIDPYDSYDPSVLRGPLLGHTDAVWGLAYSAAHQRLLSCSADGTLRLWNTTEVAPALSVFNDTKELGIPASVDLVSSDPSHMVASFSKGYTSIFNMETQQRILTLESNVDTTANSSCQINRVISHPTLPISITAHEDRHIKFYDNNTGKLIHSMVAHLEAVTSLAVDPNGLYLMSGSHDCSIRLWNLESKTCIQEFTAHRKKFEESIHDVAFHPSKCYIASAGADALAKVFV

[3] = biological target: T3, HA-tagged striatin with deletion of residues 191-269 (human, UniProt O43815 1-780, deletion of residues 191-269)
T3 construct: source: HEK293 or HEK293 stably expressing FLAG-CCM3, transfected, in lysate; not shown: HA, N-terminal, kept
T3 sequence (looked up): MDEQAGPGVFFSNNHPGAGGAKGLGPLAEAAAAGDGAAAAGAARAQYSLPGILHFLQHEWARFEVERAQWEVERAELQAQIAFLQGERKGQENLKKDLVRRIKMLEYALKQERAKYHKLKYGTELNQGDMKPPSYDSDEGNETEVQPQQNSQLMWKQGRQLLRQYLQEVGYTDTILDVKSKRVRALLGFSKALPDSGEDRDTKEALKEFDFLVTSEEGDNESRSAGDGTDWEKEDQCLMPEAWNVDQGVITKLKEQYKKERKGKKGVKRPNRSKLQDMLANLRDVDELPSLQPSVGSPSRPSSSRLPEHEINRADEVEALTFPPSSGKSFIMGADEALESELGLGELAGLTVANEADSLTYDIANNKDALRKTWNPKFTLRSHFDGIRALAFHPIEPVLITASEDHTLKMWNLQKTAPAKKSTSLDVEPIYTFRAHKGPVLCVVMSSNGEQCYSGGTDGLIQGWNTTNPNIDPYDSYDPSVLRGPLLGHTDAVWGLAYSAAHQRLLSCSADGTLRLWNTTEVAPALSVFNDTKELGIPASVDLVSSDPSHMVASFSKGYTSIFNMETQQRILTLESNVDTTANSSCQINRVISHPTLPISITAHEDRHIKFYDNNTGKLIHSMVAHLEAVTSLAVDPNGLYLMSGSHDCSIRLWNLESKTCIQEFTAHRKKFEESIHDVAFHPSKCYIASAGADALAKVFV

[4] = biological target: T4, HA-tagged Δ(148-166) striatin (human, UniProt O43815 1-780, Δ(148-166))
T4 construct: source: HEK293, transfected, in lysate; not shown: HA, N-terminal, kept
T4 sequence (looked up): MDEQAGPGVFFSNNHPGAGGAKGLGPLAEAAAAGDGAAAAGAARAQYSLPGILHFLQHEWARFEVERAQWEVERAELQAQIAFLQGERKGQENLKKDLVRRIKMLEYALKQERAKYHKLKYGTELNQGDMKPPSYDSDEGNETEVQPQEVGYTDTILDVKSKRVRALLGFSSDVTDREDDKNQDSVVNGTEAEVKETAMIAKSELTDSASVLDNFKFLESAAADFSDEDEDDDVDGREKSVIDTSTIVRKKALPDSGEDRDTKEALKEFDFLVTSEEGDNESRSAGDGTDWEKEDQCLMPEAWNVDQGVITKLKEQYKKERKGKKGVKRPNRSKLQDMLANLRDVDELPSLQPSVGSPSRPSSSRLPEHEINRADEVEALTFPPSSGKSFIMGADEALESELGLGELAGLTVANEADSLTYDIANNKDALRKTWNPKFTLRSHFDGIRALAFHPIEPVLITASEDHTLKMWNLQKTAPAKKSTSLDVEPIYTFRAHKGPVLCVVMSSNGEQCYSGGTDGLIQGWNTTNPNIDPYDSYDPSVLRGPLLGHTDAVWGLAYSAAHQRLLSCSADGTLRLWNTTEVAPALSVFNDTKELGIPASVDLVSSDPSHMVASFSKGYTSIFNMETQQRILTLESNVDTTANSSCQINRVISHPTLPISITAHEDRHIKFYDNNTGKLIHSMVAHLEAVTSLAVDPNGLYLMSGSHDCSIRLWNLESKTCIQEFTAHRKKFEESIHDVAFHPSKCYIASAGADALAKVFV

[5] = biological target: T5, HA-tagged Δ(270-344) striatin (human, UniProt O43815 1-780, Δ(270-344))
T5 construct: source: HEK293 or HEK293 stably expressing FLAG-CCM3, transfected, in lysate; not shown: HA, N-terminal, kept
T5 sequence (looked up): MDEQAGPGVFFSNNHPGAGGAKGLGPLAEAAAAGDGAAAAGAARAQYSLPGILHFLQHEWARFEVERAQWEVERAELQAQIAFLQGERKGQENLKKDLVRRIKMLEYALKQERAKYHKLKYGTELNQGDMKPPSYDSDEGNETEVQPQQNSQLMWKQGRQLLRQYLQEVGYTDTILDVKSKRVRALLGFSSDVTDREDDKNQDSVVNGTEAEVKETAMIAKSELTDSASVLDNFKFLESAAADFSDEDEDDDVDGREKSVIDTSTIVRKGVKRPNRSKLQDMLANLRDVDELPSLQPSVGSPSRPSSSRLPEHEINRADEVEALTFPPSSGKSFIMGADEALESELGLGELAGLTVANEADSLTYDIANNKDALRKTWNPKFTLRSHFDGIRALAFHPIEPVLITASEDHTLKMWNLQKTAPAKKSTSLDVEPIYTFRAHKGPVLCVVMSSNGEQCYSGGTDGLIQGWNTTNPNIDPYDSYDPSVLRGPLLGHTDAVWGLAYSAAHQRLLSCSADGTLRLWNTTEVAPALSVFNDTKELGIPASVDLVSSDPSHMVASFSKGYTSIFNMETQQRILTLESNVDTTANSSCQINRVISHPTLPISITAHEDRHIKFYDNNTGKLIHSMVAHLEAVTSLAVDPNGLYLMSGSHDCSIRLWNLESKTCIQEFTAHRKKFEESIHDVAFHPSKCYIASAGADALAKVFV

Chain of Mst4 kinase (Q9P289 whole entry): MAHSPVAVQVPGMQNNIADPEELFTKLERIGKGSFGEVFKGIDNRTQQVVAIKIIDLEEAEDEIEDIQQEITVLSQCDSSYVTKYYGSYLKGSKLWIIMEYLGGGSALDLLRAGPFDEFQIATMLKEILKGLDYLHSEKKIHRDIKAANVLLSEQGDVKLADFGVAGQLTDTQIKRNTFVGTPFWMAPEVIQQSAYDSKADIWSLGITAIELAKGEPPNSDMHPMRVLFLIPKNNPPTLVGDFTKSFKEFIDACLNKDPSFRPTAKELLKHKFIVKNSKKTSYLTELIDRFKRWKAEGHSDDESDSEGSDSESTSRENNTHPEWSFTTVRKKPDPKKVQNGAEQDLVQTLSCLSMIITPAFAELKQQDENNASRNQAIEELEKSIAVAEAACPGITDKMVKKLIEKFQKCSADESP

Binder	percent of the wild-type level bound [1]	percent reduction in binding against wild-type striatin [2] [%]	percent reduction in binding against wild-type striatin [3] [%]	fold binding against wild-type striatin [4] [fold]	percent reduction in binding against wild-type striatin [5] [%]
S/G2 nuclear autoantigen (SG2NA) (natural protein, human (endogenous in HEK293), UniProt Q13033 1-797, looked up, SG2NA, striatin family member, endogenous in HEK293 cells; source: endogenous, HEK293 lysate) MDELAGGGGGGPGMAAPPRQQQGPGGNLGLSPGGNGAAGGGGPPASEGAGPAAGPELSRPQQYTIPGILHYIQHEWARFEMERAHWEVERAELQARIAFLQGERKGQENLKKDLVRRIKMLEYALKQERAKYHKLKYGTELNQGDLKMPTFESEETKDTEAPTAPQNSQLTWKQGRQLLRQYLQEVGYTDTILDVRSQRVRSLLGLSNSEPNGSVETKNLEQILNGGESPKQKGQEIKRSSGDVLETFNFLENADDSDEDEENDMIEGIPEGKDKHRMNKHKIGNEGLAADLTDDPDTEEALKEFDFLVTAEDGEGAGEARSSGDGTEWDKDDLSPTAEVWDVDQGLISKLKEQYKKERKGKKGVKRANRTKLYDMIADLGDDELPHIPSGIINQSRSASTRMTDHEGARAEEAEPITFPSGGGKSFIMGSDDVLLSVLGLGDLADLTVTNDADYSYDLPANKDAFRKTWNPKYTLRSHFDGVRALAFHPVEPVLVTASEDHTLKLWNLQKTVPAKKSASLDVEPIYTFRAHIGPVLSLAISSNGEQCFSGGIDATIQWWNMPSPSVDPYDTYEPNVLAGTLVGHTDAVWGLAYSGIKNQLLSCSADGTVRLWNPQEKLPCICTYNGDKKHGIPTSVDFIGCDPAHMVTSFNTGSAVIYDLETSQSLVILSSQVDSGLQSNNHINRVVSHPTLPVTITAHEDRHIKFFDNKTGKMIHSMVAHLDAVTSLAVDPNGIYLMSGSHDCSIRLWNLDSKTCVQEITAHRKKLDESIYDVAFHSSKAYIASAGADALAKVFV	81 % of wild-type level				
Mst4 kinase (enzyme, Mst4 kinase, endogenous in HEK293 cells; source: endogenous, HEK293 lysate) not shown		38	33	~4	75
mammalian Ste20-like kinase Mst3 (enzyme, Mst3 kinase, endogenous in HEK293 cells; Runs as a lower and an upper (hyperphosphorylated) band; both are found with striatin; source: endogenous, HEK293 lysate) not shown			~33	~3.5	
